Data as given in PMC2132560 (The Journal of Cell Biology, 1997).

B1: recombinant hnRNP A1 protein (natural protein, human, UniProt P09651-2 1-320, looked up)
chain: MSKSESPKEPEQLRKLFIGGLSFETTDESLRSHFEQWGTLTDCVVMRDPNTKRSRGFGFVTYATVEEVDAAMNARPHKVDGRVVEPKRAVSREDSQRPGAHLTVKKIFVGGIKEDTEEHHLRDYFEQYGKIEVIEIMTDRGSGKKRGFAFVTFDDHDSVDKIVIQKYHTVNGHNCEVRKALSKQEMASASSSQRGRSGSGNFGGGRGGGFGGNDNFGRGGNFSGRGGFGGSRGGGGYGGSGDGYNGFGNDGSNFGGGGSYNDFGNYNNQSSNFGPMKGGNFGGRSSGPYGGGGQYFAKPRNQGGYGGSSSSSSYGSGRRF
B2: GST-transportin1 fusion protein (natural protein)
chain: MEYEWKPDEQGLQQILQLLKESQSPDTTIQRTVQQKLEQLNQYPDFNNYLIFVLTKLKSEDEPTRSLSGLILKNNVKAHFQNFPNGVTDFIKSECLNNIGDSSPLIRATVGILITTIASKGELQNWPDLLPKLCSLLDSEDYNTCEGAFGALQKICEDSAEILDSDVLDRPLNIMIPKFLQFFKHSSPKIRSHAVACVNQFIISRTQALMLHIDSFIENLFALAGDEEPEVRKNVCRALVMLLEVRMDRLLPHMHNIVEYMLQRTQDQDENVALEACEFWLTLAEQPICKDVLVRHLPKLIPVLVNGMKYSDIDIILLKGDVEEDETIPDSEQDIRPRFHRSRTVAQQHDEDGIEEEDDDDDEIDDDDTISDWNLRKCSAAALDVLANVYRDELLPHILPLLKELLFHHEWVVKESGILVLGAIAEGCMQGMIPYLPELIPHLIQCLSDKKALVRSITCWTLSRYAHWVVSQPPDTYLKPLMTELLKRILDSNKRVQEAACSAFATLEEEACTELVPYLAYILDTLVFAFSKYQHKNLLILYDAIGTLADSVGHHLNKPEYIQMLMPPLIQKWNMLKDEDKDLFPLLECLSSVATALQSGFLPYCEPVYQRCVNLVQKTLAQAMLNNAQPDQYEAPDKDFMIVALDLLSGLAEGLGGNIEQLVARSNILTLMYQCMQDKMPEVRQSSFALLGDLTKACFQHVKPCIADFMPILGTNLNPEFISVCNNATWAIGEISIQMGIEMQPYIPMVLHQLVEIINRPNTPKTLLENTAITIGRLGYVCPQEVAPMLQQFIRPWCTSLRNIRDNEEKDSAFRGICTMISVNPSGVIQDFIFFCDAVASWINPKDDLRDMFCKILHGFKNQVGDENWRRFSDQFPLPLKERLAAFYGV

Columns and labels:
[1] = target: B2; assay: native gel or EMSA
[2] = target: RanGTP (UniProt P62826 1-216); assay: native gel or EMSA

| binding result [1] | binding result [2] | Binder |
| --- | --- | --- |
| binds |  | B1 |
|  | binds | B2 |
